The values that follow come from patent US11541101 (UNIVERSITY OF VIRGINIA PATENT FOUNDATION, dated 2023).

The experiment addresses T1, LEM domain containing protein 3 (LEMD3), endogenous (human, UniProt Q9Y2U8 2-911).
T1 construct: also called endogenous LEMD3; native LEMD3
T1 sequence: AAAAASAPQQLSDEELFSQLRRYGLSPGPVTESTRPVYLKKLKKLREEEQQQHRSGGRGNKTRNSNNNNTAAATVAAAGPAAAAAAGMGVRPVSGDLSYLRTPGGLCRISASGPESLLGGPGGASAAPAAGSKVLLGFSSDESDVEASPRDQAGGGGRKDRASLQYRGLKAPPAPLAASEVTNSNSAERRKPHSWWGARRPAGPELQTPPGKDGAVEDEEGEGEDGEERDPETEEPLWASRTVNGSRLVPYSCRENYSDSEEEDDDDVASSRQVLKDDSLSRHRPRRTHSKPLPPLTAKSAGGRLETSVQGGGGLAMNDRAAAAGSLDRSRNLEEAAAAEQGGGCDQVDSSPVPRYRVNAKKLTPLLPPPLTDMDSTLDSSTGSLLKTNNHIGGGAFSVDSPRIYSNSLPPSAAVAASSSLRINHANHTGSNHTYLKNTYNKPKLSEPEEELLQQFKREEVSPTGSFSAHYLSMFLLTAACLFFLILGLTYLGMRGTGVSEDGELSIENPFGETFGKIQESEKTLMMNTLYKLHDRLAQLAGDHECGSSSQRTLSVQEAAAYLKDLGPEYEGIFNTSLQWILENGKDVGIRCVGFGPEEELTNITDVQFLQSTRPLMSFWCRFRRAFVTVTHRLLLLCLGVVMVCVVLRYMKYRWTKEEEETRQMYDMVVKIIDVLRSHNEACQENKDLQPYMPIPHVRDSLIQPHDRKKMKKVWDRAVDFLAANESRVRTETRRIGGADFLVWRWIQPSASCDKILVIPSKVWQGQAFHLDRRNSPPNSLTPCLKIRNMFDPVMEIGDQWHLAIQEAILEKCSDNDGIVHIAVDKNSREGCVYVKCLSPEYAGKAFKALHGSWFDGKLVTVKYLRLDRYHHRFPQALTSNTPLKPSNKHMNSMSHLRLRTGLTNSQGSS
The experiment can be described thus: LEMD3-PPM1α PLA in HFFs on glass; significant in cytoplasm and nucleus. The procedure:
In vitro PLA: Protein-protein PLA was per-formed with antibody pairs listed in Table 4 as described in (42) with the following modifications: cells were plated on FN-coated glass or hydrogels (Matrigen, Brea, Calif.). All primary antibody in-cubations were performed for 16-24 hours at 4 C and cells were counter-stained with 1:40 phalloidin-488 or phalloidin-546 in 1×PBS for 30 minutes at room tempera-ture and/or further processed for IF imaging using the procedure recommended in Sigma's PLA Resource Center. For all recombinant LEMD3 and C-terminal fragment experiments, HFFs were electroporated as above and allowed to culture for 24 hours on 10 µg/mL fibronectin coated glass or hydrogels before fixation. For LEMD3-phospho-Smad2/3, LEMD3-Smad2/3+TGFβ and for Smad2/3-Smad4 PLA assays: cells were treated 90 minutes before fixation with 50 µg/mL for LEMD3- and CTF-Smad2/3 assays, 100 µg/mL TGFβ for LEMD3-phospho-Smad2/3 experiments and 500 µg/mL TGFβ for Smad2/3-Smad4 experiments. […] Imaging and analysis were performed as described for high-resolution ex vivo PLA signals except that no tissue autofluorescence signal was measured or needed to be subtracted and, when appro-priate, other IF signal (e.g. FLAG) were measured in parallel. […] Instead the PLA signal was quantified as the PLA volume divided by the nuclear intensity for each image.

B1: Protein Phosphatase, Mg2+/Mn2+ Dependent 1α (PPM1α) (enzyme, human, UniProt P35813 2-382, looked up)
chain: GAFLDKPKMEKHNAQGQGNGLRYGLSSMQGWRVEMEDAHTAVIGLPSGLESWSFFAVYDGHAGSQVAKYCCEHLLDHITNNQDFKGSAGAPSVENVKNGIRTGFLEIDEHMRVMSEKKHGADRSGSTAVGVLISPQHTYFINCGDSRGLLCRNRKVHFFTQDHKPSNPLEKERIQNAGGSVMIQRVNGSLAVSRALGDFDYKCVHGKGPTEQLVSPEPEVHDIERSEEDDQFIILACDGIWDVMGNEELCDFVRSRLEVTDDLEKVCNEVVDTCLYKGSRDNMSVILICFPNAPKVSPEAVKKEAELDKYLECRVEEIIKKQGEGVPDLVHVMRTLASENIPSLPPGGELASKRNVIEAVYNRLNPYKNDDTDSTSTDDMW
notes: whole, on cells; Endogenous protein inside fixed HFFs, detected by PLA with antibody 7F12; also called PPM1a
Turning to B1, the binding result was “binds”.
